The supplement of paper PMC10567573

B1: TSN (parent)
chain: FLAAEQDIREEIRKVVQSLEQTAR
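Note: lentivirally expressed fusions sorted by FACS into six bins by GFP to DsRed ratio, PSI derived from sequencing read proportions per bin multiplied by bin number.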

Variants of: B1
Test: protein stability index of a GFP-peptide fusion (GPS, HEK-293T) (PSI 1-6); higher = more stable
Settings: c terminus: a fixed tail appended
Work on FLAAEQDIREHIRKVVQSLEQTAR yielded a protein stability index of 2.58.
With FLAAEQDIREIIRKVVQSLEQTAR the protein stability index was 1.72.
For FLAAEQDIREKIRKVVQSLEQTAR, the protein stability index was 2.65.
For FLAAEQDIRELIRKVVQSLEQTAR, the protein stability index was 2.19.
FLAAEQDIREMIRKVVQSLEQTAR gave a protein stability index of 1.9.
Work on FLAAEQDIRENIRKVVQSLEQTAR yielded a protein stability index of 3.58.
With FLAAEQDIREPIRKVVQSLEQTAR the protein stability index was 3.15.
With FLAAEQDIREQIRKVVQSLEQTAR the protein stability index was 2.29.
FLAAEQDIRERIRKVVQSLEQTAR gave a protein stability index of 2.89.
FLAAEQDIRESIRKVVQSLEQTAR gave a protein stability index of 2.47.
Work on FLAAEQDIRETIRKVVQSLEQTAR yielded a protein stability index of 2.43.
In the case of FLAAEQDIREVIRKVVQSLEQTAR, the protein stability index is reported as 1.95.
FLAAEQDIREWIRKVVQSLEQTAR gave a protein stability index of 1.59.
Variant FLAAEQDIREYIRKVVQSLEQTAR has a protein stability index of 1.76.
In the case of FLAAEQDIREEARKVVQSLEQTAR, the protein stability index is reported as 2.32.
FLAAEQDIREECRKVVQSLEQTAR gave a protein stability index of 1.58.
Work on FLAAEQDIREEDRKVVQSLEQTAR yielded a protein stability index of 4.64.
With FLAAEQDIREEERKVVQSLEQTAR the protein stability index was 4.52.
FLAAEQDIREEFRKVVQSLEQTAR gave a protein stability index of 2.89.
With FLAAEQDIREEGRKVVQSLEQTAR the protein stability index was 3.81.
In the case of FLAAEQDIREEHRKVVQSLEQTAR, the protein stability index is reported as 4.29.
Work on FLAAEQDIREEKRKVVQSLEQTAR yielded a protein stability index of 3.98.
Variant FLAAEQDIREELRKVVQSLEQTAR has a protein stability index of 2.63.
Variant FLAAEQDIREEMRKVVQSLEQTAR has a protein stability index of 1.94.
FLAAEQDIREENRKVVQSLEQTAR gave a protein stability index of 4.68.
For FLAAEQDIREEPRKVVQSLEQTAR, the protein stability index was 4.45.
FLAAEQDIREEQRKVVQSLEQTAR gave a protein stability index of 4.06.
FLAAEQDIREERRKVVQSLEQTAR gave a protein stability index of 4.3.
Work on FLAAEQDIREESRKVVQSLEQTAR yielded a protein stability index of 2.59.
For FLAAEQDIREETRKVVQSLEQTAR, the protein stability index was 3.07.
FLAAEQDIREEVRKVVQSLEQTAR showed a protein stability index of 2.1.
In the case of FLAAEQDIREEWRKVVQSLEQTAR, the protein stability index is reported as 2.89.
In the case of FLAAEQDIREEYRKVVQSLEQTAR, the protein stability index is reported as 3.2.
FLAAEQDIREEIAKVVQSLEQTAR showed a protein stability index of 1.94.
FLAAEQDIREEICKVVQSLEQTAR showed a protein stability index of 1.94.
FLAAEQDIREEIDKVVQSLEQTAR showed a protein stability index of 1.84.
FLAAEQDIREEIEKVVQSLEQTAR gave a protein stability index of 1.89.
With FLAAEQDIREEIFKVVQSLEQTAR the protein stability index was 1.55.
FLAAEQDIREEIGKVVQSLEQTAR gave a protein stability index of 1.94.
FLAAEQDIREEIHKVVQSLEQTAR showed a protein stability index of 2.7.
For FLAAEQDIREEIIKVVQSLEQTAR, the protein stability index was 1.43.
FLAAEQDIREEIKKVVQSLEQTAR showed a protein stability index of 1.89.
In the case of FLAAEQDIREEILKVVQSLEQTAR, the protein stability index is reported as 1.83.
FLAAEQDIREEIMKVVQSLEQTAR showed a protein stability index of 2.07.
In the case of FLAAEQDIREEINKVVQSLEQTAR, the protein stability index is reported as 2.16.
In the case of FLAAEQDIREEIPKVVQSLEQTAR, the protein stability index is reported as 3.64.
For FLAAEQDIREEIQKVVQSLEQTAR, the protein stability index was 2.14.
FLAAEQDIREEISKVVQSLEQTAR showed a protein stability index of 2.12.
FLAAEQDIREEITKVVQSLEQTAR gave a protein stability index of 2.82.
With FLAAEQDIREEIVKVVQSLEQTAR the protein stability index was 1.66.
For FLAAEQDIREEIWKVVQSLEQTAR, the protein stability index was 2.18.
FLAAEQDIREEIYKVVQSLEQTAR gave a protein stability index of 2.73.
For FLAAEQDIREEIRAVVQSLEQTAR, the protein stability index was 2.08.
Variant FLAAEQDIREEIRCVVQSLEQTAR has a protein stability index of 2.07.
FLAAEQDIREEIRDVVQSLEQTAR showed a protein stability index of 3.41.
For FLAAEQDIREEIREVVQSLEQTAR, the protein stability index was 2.36.
For FLAAEQDIREEIRFVVQSLEQTAR, the protein stability index was 1.48.
FLAAEQDIREEIRGVVQSLEQTAR gave a protein stability index of 2.03.
For FLAAEQDIREEIRHVVQSLEQTAR, the protein stability index was 1.98.
Variant FLAAEQDIREEIRIVVQSLEQTAR has a protein stability index of 1.39.
Work on FLAAEQDIREEIRLVVQSLEQTAR yielded a protein stability index of 2.13.
With FLAAEQDIREEIRMVVQSLEQTAR the protein stability index was 2.24.
Work on FLAAEQDIREEIRNVVQSLEQTAR yielded a protein stability index of 2.52.
In the case of FLAAEQDIREEIRPVVQSLEQTAR, the protein stability index is reported as 3.76.
FLAAEQDIREEIRQVVQSLEQTAR showed a protein stability index of 2.05.
For FLAAEQDIREEIRRVVQSLEQTAR, the protein stability index was 3.3.
With FLAAEQDIREEIRSVVQSLEQTAR the protein stability index was 2.07.
FLAAEQDIREEIRTVVQSLEQTAR gave a protein stability index of 2.25.
FLAAEQDIREEIRVVVQSLEQTAR showed a protein stability index of 1.83.
Variant FLAAEQDIREEIRWVVQSLEQTAR has a protein stability index of 1.77.
Work on FLAAEQDIREEIRYVVQSLEQTAR yielded a protein stability index of 2.3.
For FLAAEQDIREEIRKAVQSLEQTAR, the protein stability index was 3.48.
In the case of FLAAEQDIREEIRKCVQSLEQTAR, the protein stability index is reported as 2.56.
Variant FLAAEQDIREEIRKDVQSLEQTAR has a protein stability index of 3.62.
In the case of FLAAEQDIREEIRKEVQSLEQTAR, the protein stability index is reported as 4.34.
Work on FLAAEQDIREEIRKFVQSLEQTAR yielded a protein stability index of 2.96.
With FLAAEQDIREEIRKGVQSLEQTAR the protein stability index was 3.29.
With FLAAEQDIREEIRKHVQSLEQTAR the protein stability index was 2.8.
For FLAAEQDIREEIRKIVQSLEQTAR, the protein stability index was 2.19.
Work on FLAAEQDIREEIRKKVQSLEQTAR yielded a protein stability index of 3.37.
In the case of FLAAEQDIREEIRKLVQSLEQTAR, the protein stability index is reported as 2.48.
With FLAAEQDIREEIRKMVQSLEQTAR the protein stability index was 2.17.
Work on FLAAEQDIREEIRKNVQSLEQTAR yielded a protein stability index of 3.76.
With FLAAEQDIREEIRKPVQSLEQTAR the protein stability index was 3.
With FLAAEQDIREEIRKQVQSLEQTAR the protein stability index was 3.54.
Variant FLAAEQDIREEIRKRVQSLEQTAR has a protein stability index of 3.31.
For FLAAEQDIREEIRKSVQSLEQTAR, the protein stability index was 3.07.
In the case of FLAAEQDIREEIRKTVQSLEQTAR, the protein stability index is reported as 2.61.
With FLAAEQDIREEIRKWVQSLEQTAR the protein stability index was 2.4.
FLAAEQDIREEIRKYVQSLEQTAR gave a protein stability index of 3.44.
Variant FLAAEQDIREEIRKVAQSLEQTAR has a protein stability index of 2.3.
FLAAEQDIREEIRKVCQSLEQTAR gave a protein stability index of 2.13.
FLAAEQDIREEIRKVDQSLEQTAR gave a protein stability index of 3.78.
With FLAAEQDIREEIRKVEQSLEQTAR the protein stability index was 2.21.
